What follows are binders tested against T1, γδ T cell receptor on human γδ T cells (human) (assay: flow cytometry DRC binding 37 C, human γδ T cells).
T1 construct: whole, on cells; Target is the γδ TCR on a mixed population of human γδ T cells; also called AG000003021 (γδ T cells)
Method: (§1) Binding of antibodies to human γδ T cells or SKW cell lines expressing Vγ9/Vδ2, Vγ9/Vδ2 or Vγ5/Vδ2 was carried out by flow cytometry. Briefly, the cells were centrifuged at 300×g for 5 minutes and the pellet was resuspended in 34 ml fresh media (in RPMI+10% FBS). 50 μL of the cells were then plated (44K cells/well) into assay plates. Samples were incubated for one hour at 37° C. in tissue culture (TC) incubator followed by wash steps by adding 100 μl FACS staining buffer. Secondary detention antibodies (A647 conjugated anti-human IgG Fc specific antibody (2 μg/mL) along with AF488 anti mouse CD3, clone OKT3 at 1 ug/mL) were added at 50 μL/well to appropriate wells according to the plate map. After incubating for 60 minutes at 37° C. in the TC incubator, cells were again washed as described above. This is followed by resuspension in 20 μL/well running buffer containing 1:1000 dilution of Sytox blue dead cell stain and the plates were run on iQue Screener.
(§2) Gating and data analysis: Human anti-human Vγ9 antibody (VG9B2 mAb at 10 nM) was used to mark the gating of positive population. All cells were first gated for singlets on SCS-A vs. SCS-H dot plot, live/dead followed by CD3 positive population, and this subset of CD3 positive population was gated for Vγ9 positive binding using positive control mAb. Cells were also assessed for cell binding of control mAbs by RL1 (A647) Geomeans from the live cell population. Advanced metrics were used and normalization metrics were chosen to calculate fold over background wells containing secondary antibody alone (designated as ‘background’ within ForeCyt settings).

Binder	Max. Activity [fold over background]
VG9B96 (antibody, human IgG1, kappa, V domains shown, IgG1, kappa; specificity column: g/d constant) VH: EVQLVQSGAEVKKPGSSVKVSCKASGGTFSNYAISWVRLAPGQGLEWMGGIIPIFSAGTYAQRFQGRVTITADKSTSTAYMELNSLRSEDTAVYYCSSNSGTYYDYYYGMDVWGQGTMVTVSS VL: DIVMTQSPLSSHVTLGQPASISCRSSQSLVHSDGNTYLSWLQQRPGQPPRLLIYKIFNRLSGVPDRFSGSGAGTDFTLKISRVEAEDVGVYYCMQAKQFPLTFGGGTKVEIKR	1020
VG9B386 (antibody, human IgG1, kappa, V domains shown, IgG1, kappa; specificity column: g/d constant) VH: EVQLVESGGGLVKPGGSLRLSCAASGFTFSSYSMIWVRQAPGKGLEWVSSIGSSSTYIYYADSVRGRFTISRDNAKTSLYLQMNSLRAEDTAMYFCARDGETGGFDYWGQGILVTVSS VL: EIVMTQSPGTLSLSPGERATLSCRASQSISRSYLAWYQQKPGQPPRLLIYGPSNRATGIPDRFSASGSGTDFTLTNSRLEPEDFAVYYCQQYGSLPLTFGGGTKVEIKR	2110
VG9B447 (antibody, human IgG1, lambda, IgG1, lambda; specificity column: g/d constant) heavy: not shown light: SYELTQPASVSGSPGQSITISCTGTSSDVGGYNYVSWYQQHPGKAPKLMIYEVSNRPSGVSNRFSGSKSGNTASLTISGLQAEDEADYYCSSYTSTSVVFGGGTKLTVLGQPKAAPSVTLFPPSSEELQANKATLVCLISDFYPGAVTVAWKADSSPVKAGVETTTPSKQSNNKYAASSYLSLTPEQWKSHRSYSCQVTHEGSTVEKTVAPTECS	1420
VG9B189 (antibody, human IgG1, lambda, V domains shown, IgG1, lambda; specificity column: Vd2) VH: EVQLVQSGGGLVKPGASLKLSCAASGFTFSNHGMSWVRQTSDKRLEWVASITRGGDTTYYPDNVKGRFTISRENAKNTLYLQMSSLKSDDTALYYCTRGPLTVGYAMDYWGQGTTVTVSS VL: QSVVTQPPSASGSPGQSVTISCTGTSSDVGGYNYVSWYQQHPGKAPKLMIYEVSKRPSGVPDRFSGSKSGNTASLTVSGLQAEDEADYYCNSYAGSNNFEVFGGGTKVTVLG	739
VG9B136 (antibody, human IgG1, kappa, V domains shown, IgG1, kappa; specificity column: g/d constant) VH: QVQLQQSGPGLVKPSQTLSLTCAISGDSVSSNRAAWNWIRQSPSKGLEWLGRTYYRSKWYNEYAASVKSRMSINPDTSKNQFSLQLNSVTPEDTALYYCARDLWELREACDIWGQGTMVTVSS VL: DIVMTQSPSFLSTFVGDRVTITCRASQGISSYLAWYQQKPGKVPKLLIYVASTLQSGVPSRFSGSGSGTEFTLTISSLQPEDFATYYCQQLNSYPFTFGPGTKVDIKR	2680
VG9B112 (antibody, human IgG1, kappa, V domains shown, IgG1, kappa; specificity column: g/d constant) VH: QVQLQQSGPGLVKPSQTLSLTCAISGDSVSSNSAAWNWIRQSPSRGLEWLGGTYYRSKWFNNYAVSVKSRITINPDTSTNQFSLQLNSVTPADTAVYYCARGEWGLRDAFDIWGQGTMVTVSS VL: DIQMTQSPSFLSASVGDRVIITCRASQGIHSYLAWYQQKPGKVPKLLIYVASTLQSGVPSRFSGSGSGTEFTLTISSLQPEDFATYYCQQLNSYPWTFGQGTKLEIKR	1990
VG9B392 (antibody, human IgG1, lambda, V domains shown, IgG1, lambda; specificity column: g/d constant) VH: QVQLVQSGAEVKRPGASAKVSCKTSGYTFTGYYIHWVRQAPGQGLEWMGWINPNSGYTNSAQKFQGRVSMTRDTSISTVYMELSRLRSDDTAVYYCAREDDAFDIWGQGTLVTVSS VL: SSELTQDPAVSVALGQTVRITCQGDSLRSYYARWYQQKPGQAPVLVIYGKNNRPSGIPDRFSGSSSGDTASLTITGALAEDEADYYCNSRDNSGNHVVFGGGTKVTVLG	1250
VG9B410 (antibody, human IgG1, kappa, IgG1, kappa; specificity column: g/d constant) heavy: not shown light: DIQMTQSPSSVSASVGDRVTITCRASQGINSWLAWYQQKPGNAPKLLIYAASSLQSGVPSRFSGIGSGTDFIFTISSLQPEDFASYYCQQANSFPWTFGQGTKVEIKRTVAAPSVFIFPPSDEQLKSGTASVVCLLNNFYPREAKVQWKVDNALQSGNSQESVTEQDSKDSTYSLSSTLTLSKADYEKHKVYACEVTHQGLSSPVTKSFNRGEC	2250

Now from value to binder:

Max. Activity [fold over background]	Binder
1560	VG9B47 (antibody, human IgG1, kappa, V domains shown, IgG1, kappa; specificity column: g/d constant) VH: QVQLVQSGAEVKKPGSSVKVSCKASGGSFSNYAISWMRQAPGQGLEWMGGIIPFFGTPDYAQKFQGRVTITADKSTSTAYMELSSLRSEDTAVYYCSTGGGYGDYDYYYGINVWGQGTMVTVSS VL: DIVMTQSPLSSPVDLGQPASISCRSSQSLVHSDGNTYLSWLQQRPGQPPRLLIYKISNRFSGVPDRFSGSGAGTDFTLKISRVEAEDVGVYYCMQAKEFPLTLGGGTKVDIKR
137	VG9B41 (antibody, human IgG1, kappa, V domains shown, IgG1, kappa; specificity column: Vd2) VH: QVQLQESGPQLVRPGASVKISCKASGYSFTTYWMHWVKQRPGQGLEWIGLIDPSDSETRLNQKFKDKATLTVDKSSSTAYMRLSSPTSEDSAVYYCASNRWLLGWGQGTMVTVSS VL: EIVLTQTPLSSPVTLGQPASISCRSSQSLVHSDGNTYLSWLHQRPGQPPRLLIYKISNRFSGVPDRFSGSGAGTDFTLKISRVETEDVGVYYCVQTREFPLTFGGGTKVEIKR
1990	VG9B125 (antibody, human IgG1, kappa, V domains shown, IgG1, kappa; specificity column: g/d constant) VH: EVQLVESGGTLVQPGGSLRLSCAVSGFTFSSYDMNWVRQAPGKGLEWVSYISSSSTAKYYADSVKGRFTISRDNAKNSLYLQMNSLWDEDTAVYYCAREDIVVVTPILQHWGQGTTVTVSS VL: EIVMTQSPATLSLSPGERAILSCRASQSVSKDLAWYQQKPGQAPRLLIYDASNRATGIPARISGSGSGTDFTLTISSLEPEDFAVYYCQQRINWPLFTFGPGTKVEIKR
536	VG9B53 (antibody, human IgG1, kappa, V domains shown, IgG1, kappa; specificity column: Vd2) VH: QVQLQESGPGLVKPSETLSLTCTVSGGSISSYYWSWIRQPAGKGLEWIGRIHTIGSINYNPSLKSRVTMSVDTSKNQFSLKLSSVTAADTAVYYCAMEGVGATNYYYGMAVWGRGTMVTVSS VL: not shown
2430	VG9B144 (antibody, human IgG1, lambda, V domains shown, IgG1, lambda; specificity column: g/d constant) VH: QVQLVQSGAEVKKPGASVKVSCKASGYTFTGYYMHWMRQAPGQGLEWMGWINPNSGATNKEQKFQGRVTMTRDTSISTAYMELSRLRSDDTAVYYCAREDDAFDVWGQGTMVTVSS VL: SSELTQDPAVSVALGQTVRITCQGDNLRNYYATWFQQKPGQAPVLVFFGKNNRPSGIPDRFSGSSSGDTASLTITGAQAEDEADYYCNSRDSSGNHVVFGGGTKLTVLG
1460	VG9B379 (antibody, human IgG1, lambda, V domains shown, IgG1, lambda; specificity column: g/d constant) VH: EVQLVQSGPEVKKPGASVKVSCKASGYTFTGDYIHWVRQVPGQGLEWMGWINPNSGGTNYAQKFQGRVTMTRDTSISTAFMELSRLRSDDTAVYYCAREGGVAPAAPDAFDIWGQGTMVTVSS VL: SSELTQDPAVSVALGQTVRITCQGDSLRSYYARWYQQKPGQAPVVVIYGKNNRPSGIPDRFSGSSSGNTASLTITGAQAEDEADYYCNSRDSSGNHRVFGGGTKLTVLG
1970	VG9B387 (antibody, human IgG1, lambda, V domains shown, IgG1, lambda; specificity column: g/d constant) VH: EVQLVESGAEVKKPGASVKVSCKASGFTFTGYYLQWVRQAPGQGLEWMGWINPNSGYTDYAQRFQDRVTMTRDTSINTAYMELSRLRSDDTAVYYCARLDDAFDVWGQGTMVTVSS VL: SYELTQDPAVSVALGQTVRITCQGDSLRNYYAIWYQQKPGQAPVLVIFGKNNRPSGIPDRFSGSSSGTTASLTITGTQAEDEADYYCNSRDSSGNHWVFGGGTKLTVLG
2430	VG9B369 (antibody, human IgG1, kappa, V domains shown, IgG1, kappa; specificity column: g/d constant) VH: EVQLLESGPTLVKPTQTLTLTCTFSGFSLSTIGVGVGWIRQPPGKALEWLSLIYWNDDKRYNPSLKSRLTITKDTSKNQVVLTMTNMDPVDTATYYCAHSHDWVHAFDIWGQGTMVTVSS VL: DIVMTQSPSSLSASVGDRVTITCQASQDISHYLNWYQQKPGKAPKFLIYDASNLDTGVPSRFSGSGSGTDFTFTISSLQPEDIATYYCQQYDNFPLTFGGGTKVEIKR

The binders below were run against T2, γδ T cell receptor on human γδ T cells (human) (assay: flow cytometry, DRC binding 37 C, human γδ T cells).
T2 construct: also called AG000003021 (γδ T cells)
Method: as §1, §2

Max. Activity [fold over background]	Binder
856	VG9B442 (antibody, human IgG1, lambda, IgG1, lambda) heavy: not shown light: QSALTQPASVSGSPGQSITISCTGTSSDVGGYNYVSWYQQHPGKAPKLMIYEVSNRPSGVSNRFSGSKSGNTASLTISGLQAEDEADYYCSSYTSTSVVFGGGTKVTVLGQPKAAPSVTLFPPSSEELQANKATLVCLISDFYPGAVTVAWKADSSPVKAGVETTTPSKQSNNKYAASSYLSLTPEQWKSHRSYSCQVTHEGSTVEKTVAPTECS
804	VG9B434 (antibody, human IgG1, lambda, IgG1, lambda) heavy: not shown light: QSVLTQPASVSGSPGQSITISCTGTSSDVGGYNYVSWYQQHPGKAPKLMIYEVSNRPSGVSNRFSGSKSGNTASLTISGLQAEDEADYYCSSYTSTSVVFGGGTKLTVLGQPKAAPSVTLFPPSSEELQANKATLVCLISDFYPGAVTVAWKADSSPVKAGVETTTPSKQSNNKYAASSYLSLTPEQWKSHRSYSCQVTHEGSTVEKTVAPTECS
767	VG9B460 (antibody, human IgG1, lambda, IgG1, lambda) heavy: not shown light: QLVLTQPASVSGSPGQSITISCTGTSSDVGGYNYVSWYQQHPGKAPKLMIYEVSNRPSGVSNRFSGSKSGNTASLTISGLQAEDEADYYCSSYTSTSVVFGGGTKLTVLGQPKAAPSVTLFPPSSEELQANKATLVCLISDFYPGAVTVAWKADSSPVKAGVETTTPSKQSNNKYAASSYLSLTPEQWKSHRSYSCQVTHEGSTVEKTVAPTECS
812	VG9B436 (antibody, human IgG1, lambda, IgG1, lambda) heavy: not shown light: QSVLTQPASVSGSPGQSITISCTGTSSDVGGYNYVSWYQQHPGKAPKLMIYEVSNRPSGVSNRFSGSKSGNTASLTISGLQAEDEADYYCSSYTSTSVVFGGGTKLTVLGQPKAAPSVTLFPPSSEELQANKATLVCLISDFYPGAVTVAWKADSSPVKAGVETTTPSKQSNNKYAASSYLSLTPEQWKSHRSYSCQVTHEGSTVEKTVAPTECS

Reference: US20220125947A1 (published 2022)
